Test results: article PMC9701223, “GOLPH3 protein controls organ growth by interacting with TOR signaling proteins in Drosophila” (Cell Death & Disease, 2022)

T1: GST-Lst8 (Drosophila melanogaster, UniProt Q9W328 1-313)
T1 construct: Lst8 (lethal with SEC13 protein 8), Drosophila melanogaster; full-length cDNA cloned into pGEX-6p-2; Held on glutathione beads as bait; source: E. coli ArcticExpress (DE3), purified on glutathione-Sepharose 4B beads
T1 sequence (looked up): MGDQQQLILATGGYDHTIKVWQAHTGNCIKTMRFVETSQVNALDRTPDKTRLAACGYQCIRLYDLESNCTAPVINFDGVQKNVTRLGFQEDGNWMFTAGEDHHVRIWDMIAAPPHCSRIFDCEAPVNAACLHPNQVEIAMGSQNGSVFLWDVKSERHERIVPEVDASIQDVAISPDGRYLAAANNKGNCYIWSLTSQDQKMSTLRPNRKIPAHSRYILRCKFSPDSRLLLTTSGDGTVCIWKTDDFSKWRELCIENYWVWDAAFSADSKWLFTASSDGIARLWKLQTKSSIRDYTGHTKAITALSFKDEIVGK

B1: GST-Tctp (Drosophila Translationally controlled tumor protein) (natural protein, Drosophila melanogaster, UniProt Q9VGS2 1-172, looked up)
chain: MKIYKDIITGDEMFADTYKMKLVDDVIYEVYGKLITRQGDDIKLEGANASAEEADEGTDITSESGVDVVLNHRLTECFAFGDKKSYTLYLKDYMKKVLAKLEEKSPDQVDIFKTNMNKAMKDILGRFKELQFFTGESMDCDGMVALVEYREINGDSVPVLMFFKHGLEEEKC
notes: Translationally controlled tumor protein (Tctp), Drosophila melanogaster; full-length cDNA cloned into pGEX-6p-2; Held on glutathione beads as bait; source: E. coli BL21-Codon Plus, purified on glutathione-Sepharose 4B beads
B2: 6XHis-dGOLPH3 (natural protein, Drosophila melanogaster, UniProt Q9VQ93 1-294, looked up)
chain: MNRSDGLVRRSVKPRENGGAEGGLNANTPDDNQDALDNLKDQEDNIDDGDSKETRLTLMEEVLLLGLKDKEGYTSFWNDCISSGLRGCILIELGLRGRVMIEKSGMRRRGLCTRKLILKSDQQTGDVLLDEALKHIKETDPPETVQSWIEYLSGETWNPLKLRYQLKNVRERLAKNLVEKGVLTTEKQNFLLFDMTTHPLSDNVVKCRLVKKIQDSVLSKWVNDPQRMDKRMLALIFLAHASDVIENAFAPLNDDDYEVAMKRVRELLDLDFEAESAKPNANEILWAVFMAFTK
notes: Golgi phosphoprotein 3 (dGOLPH3), Drosophila melanogaster; source: bacterially expressed

Experiments:
[1] = molecular target: B2; test: pull-down; direct interaction assay: bacterially expressed 6XHis-dGOLPH3 incubated with GST or GST-tagged proteins on glutathione-Sepharose 4B beads, 1 h, 4 °C; wash 25 mM Tris-HCl pH 7.4, 150 mM NaCl, 1% NP-40, 1 mM EDTA; western blot; conditions: both partners purified
[2] = molecular target: T1, GST-Lst8; test: as above; conditions: both partners purified

binding result [1]	binding result [2]	Binder
binds	–	B1
–	binds	B2
